In the supplement of paper PMC10126150:
± gives the standard deviation of the averaged measurements.

Tested on: ATP
Test: switch fluorescence ratio, 500 uM ATP over buffer (Cy3 cluster intensity, sum of 5 cycles each) (fold (ratio)); higher = stronger signal-on switching upon ATP binding; sequences stand for … in TCGTCGGCAGCGTCAGATGTGTATAAGAGACAGTTTTTTTTTTTTTTTTTTTTTTTTT…TC
Conditions: aptamer strand: ATP DNA aptamer (quencher-CACCTGGGGGAGTATTGCGGAGGAAGG + anchor), 100 nM annealed; ATP concentration: 500 uM
Method in brief: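 Five buffer/ATP imaging cycles were run on Cy3-labelled switching-strand clusters on a modified Illumina MiSeq flow-cell, with NaOH stripping and re-annealing between cycles. In each cycle, clusters annealed to 100 nM quencher-labelled ATP aptamer were imaged in selection buffer, then after 15 min with 500 uM ATP at 22 °C. Per cluster, the fluorescence ratio is summed target-cycle over summed buffer-cycle Cy3 intensity, averaged per switch-domain sequence. Only clusters within 100-1000 RFU were kept.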
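Further: ATP exposure 15 min at 22 °C before imaging.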

Sequence | switch fluorescence ratio
ACTAAGGGGT | 1.05 ± 0.016
ACTAATGGCT | 1.01 ± 0.02
ACTACAAGTT | 1 ± 0.026
ACTACATATG | 1.03 ± 0.016
ACTACCGGCG | 1.09 ± 0.022
ACTACGTCGA | 2.01 ± 0.21
ACTAGATTGA | 1.01 ± 0.028
ACTAGGGCAG | 1.035 ± 0.005
ACTAGGGCGT | 1 ± 0.033
ACTAGGTTAT | 1.16 ± 0.15
ACTAGTAACG | 0.9938 ± 0.0098
ACTAGTATGC | 0.992 ± 0.017
ACTAGTATTA | 1 ± 0.036
ACTAGTGGGG | 0.996 ± 0.017
ACTATCTATT | 0.997 ± 0.034
ACTATGAGCT | 1.04 ± 0.041
ACTATGTCTT | 1.005 ± 0.0049
ACTATGTGTA | 0.989 ± 0.014
ACTATTGGTG | 1.12 ± 0.035
ACTATTTTTC | 1.016 ± 0.0035
ACTCAAACCA | 1.14 ± 0.035
ACTCAATTTT | 1.05 ± 0.03
ACTCAGGTGT | 3.23 ± 0.13
ACTCATTCTC | 1.04 ± 0.033
ACTCGAGGGA | 1.01 ± 0.011

Sequence | switch fluorescence ratio
ACTCGCCCCA | 1.46 ± 0.084
ACTCGCGGGA | 0.995 ± 0.028
ACTCGGAGCG | 1.01 ± 0.038
ACTCGGCCGG | 1.001 ± 0.009
ACTCGGGA | 1.13 ± 0.16
ACTCGGGGGC | 1.09 ± 0.23
ACTCGGTCTG | 1.02 ± 0.027
ACTCTAGTAC | 1.31 ± 0.034
ACTCTATTTG | 1.04 ± 0.025
ACTCTTTGAT | 1.02 ± 0.0093
ACTGAACGGT | 1.14 ± 0.055
ACTGAATGCT | 0.973 ± 0.049
ACTGAATTTG | 1.02 ± 0.053
ACTGAGGCCT | 1.05 ± 0.045
ACTGATTTGT | 0.996 ± 0.048
ACTGCCGGTC | 1.04 ± 0.041
ACTGCGAATT | 1.07 ± 0.023
ACTGCGTAAA | 0.991 ± 0.041
ACTGCTTGGT | 0.996 ± 0.017
ACTGGAGGAG | 1.01 ± 0.017
ACTGGAGTTT | 1.01 ± 0.023
ACTGGCTGAG | 1.01 ± 0.024
ACTGGGGATT | 1.04 ± 0.036
ACTGGGGCGG | 1.022 ± 0.0063
ACTGGGGGGA | 1.02 ± 0.04

Sequence | switch fluorescence ratio
ACTGGGGGGG | 0.995 ± 0.03
ACTGGGGTCA | 1 ± 0.03
ACTGGGGTTA | 0.9786 ± 0.0021
ACTGGGTAAA | 1.002 ± 0.0086
ACTGGGTTGG | 0.9922 ± 0.0074
ACTGGTGACT | 1.01 ± 0.037
ACTGTAATGT | 1.13 ± 0.011
ACTGTATATT | 1.18 ± 0.023
ACTGTATGTG | 1.05 ± 0.024
ACTGTGGGGG | 1.01 ± 0.022
ACTGTGTTTT | 0.972 ± 0.015
ACTGTTCAGC | 0.9948 ± 0.0062
ACTGTTTTTT | 1.02 ± 0.018
ACTTAAATTA | 1.03 ± 0.036
ACTTACAGAA | 1.23 ± 0.011
ACTTACGGTT | 1.32 ± 0.18
ACTTAGGTAA | 1.01 ± 0.024
ACTTATCTAC | 1.05 ± 0.069
ACTTATGATA | 1.02 ± 0.054
ACTTATGGCT | 1.05 ± 0.022
ACTTCTAAAC | 1.07 ± 0.044
ACTTCTAATT | 1.01 ± 0.038
ACTTCTTTGT | 1.1 ± 0.11
ACTTGAAGTG | 0.997 ± 0.021
ACTTGACGTG | 1.01 ± 0.059

Sequence | switch fluorescence ratio
ACTTGATCCC | 1.02 ± 0.043
ACTTGCCGTA | 0.992 ± 0.071
ACTTGGATGG | 0.995 ± 0.028
ACTTGGCTGT | 0.99842 ± 0.00092
ACTTGGGACT | 1.04 ± 0.047
ACTTGGGCAT | 0.993 ± 0.028
ACTTGGGGCC | 0.971 ± 0.012
ACTTGGGGGA | 0.9907 ± 0.0057
ACTTGGGTAG | 0.9928 ± 0.0011
ACTTGGTCGT | 1.04 ± 0.012
ACTTGGTCTT | 0.974 ± 0.03
ACTTGTAAAC | 1.01 ± 0.025
ACTTGTAGGC | 1.01 ± 0.05
ACTTTAATTG | 1.002 ± 0.0014
ACTTTATTAG | 1.0103 ± 0.00038
ACTTTGAAGT | 0.993 ± 0.024
ACTTTGAATC | 0.998 ± 0.053
ACTTTGCGGT | 1.078 ± 0.0015
ACTTTGCGTT | 0.992 ± 0.011
ACTTTGGACA | 1.038 ± 0.0052
ACTTTGGCCC | 1.005 ± 1.1e-05
ACTTTGGGAT | 1.023 ± 0.0029
AGAAAAACAT | 1.034 ± 0.0073
AGAAAAACCG | 1.05 ± 0.052
AGAAAAATGC | 1.04 ± 0.088

Sequence | switch fluorescence ratio
AGAAAAGAGT | 1.01 ± 0.017
AGAAAAGGAA | 1 ± 0.017
AGAAACAGCT | 1.04 ± 0.046
AGAAAGCGAC | 1.17 ± 0.093
AGAAAGGAAG | 1.01 ± 0.024
AGAAAGGGCG | 0.94 ± 0.037
AGAAAGTTTG | 1.01 ± 0.044
AGAAATACGG | 1.21 ± 0.063
AGAACCTGGG | 0.981 ± 0.055
AGAACGGCGG | 0.972 ± 0.085
AGAACTGAGA | 0.998 ± 0.077
AGAACTGGCT | 0.988 ± 0.011
AGAACTTTTA | 0.998 ± 0.015
AGAAGAGTAA | 1.009 ± 0.0091
AGAAGATTGT | 0.989 ± 0.013
AGAAGCGGTT | 1.02 ± 0.025
AGAAGGGCTT | 1 ± 0.026
AGAAGGGGGA | 1.01 ± 0.039
AGAAGGGGGG | 0.998 ± 0.022
AGAAGGGGTA | 1.01 ± 0.046
AGAAGGGTTG | 1 ± 0.023
AGAAGTTAGG | 0.973 ± 0.013
AGAAGTTGCG | 0.986 ± 0.0083
AGAAGTTGGG | 0.993 ± 0.02
AGAAGTTTTC | 0.973 ± 0.038

Sequence | switch fluorescence ratio
AGAATCGACT | 0.997 ± 0.014
AGAATCGGCG | 1.03 ± 0.0081
AGAATCGTTG | 1.005 ± 0.0072
AGAATGGGTG | 1.05 ± 0.036
AGAATGTGGG | 0.996 ± 0.034
AGAATTAAG | 0.96 ± 0.017
AGAATTATTG | 0.9936 ± 0.0079
AGAATTTATT | 1.01 ± 0.039
AGAATTTTAG | 1.01 ± 0.016
AGACAGCGAG | 1.015 ± 0.0021
AGACAGGGCC | 0.988 ± 0.01
AGACAGGGCT | 1.02 ± 0.042
AGACAGGGGA | 1.02 ± 0.04
AGACCAATTC | 1.095 ± 0.0037
AGACCACTTG | 1.036 ± 0.0069
AGACCGAGTT | 1.08 ± 0.096
AGACCGCAGT | 1.137 ± 0.0071
AGACCTCATA | 1.02 ± 0.021
AGACGAAAAG | 1.03 ± 0.038
AGACGAAAGT | 0.998 ± 0.054
AGACGGCAAA | 1.03 ± 0.044
AGACGGCGGG | 0.996 ± 0.012
AGACGGGATG | 0.973 ± 0.084
AGACTAGTCG | 0.972 ± 0.047
AGACTCTTGA | 1 ± 0.0083

Sequence | switch fluorescence ratio
AGACTTTCTT | 1.04 ± 0.02
AGAGAAAAAG | 0.957 ± 0.042
AGAGAGAAAG | 0.97 ± 0.025
AGAGAGATCC | 1.02 ± 0.058
AGAGATGGTT | 0.979 ± 0.012
AGAGATTACG | 1.02 ± 0.034
AGAGATTGGG | 0.965 ± 0.017
AGAGCACAGG | 1.09 ± 0.018
AGAGCAGCTG | 0.998 ± 0.041
AGAGCAGTGT | 1.01 ± 0.014
AGAGCGGGGG | 1.02 ± 0.038
AGAGGAATTC | 1 ± 0.013
AGAGGAATTT | 1.01 ± 0.02
AGAGGAGAAT | 0.993 ± 0.0021
AGAGGAGGCA | 0.9727 ± 0.0085
AGAGGATATA | 0.988 ± 0.043
AGAGGCCTTG | 0.969 ± 0.013
AGAGGCTTAA | 1.01 ± 0.011
AGAGGGCAGG | 0.995 ± 0.018
AGAGGGCCAT | 0.9972 ± 0.0021
AGAGGGCGGT | 1.02 ± 0.024
AGAGGGCGTC | 1.04 ± 0.046
AGAGGGGAAT | 1.01 ± 0.023
AGAGGGGCGG | 1 ± 0.016
AGAGGGGTAC | 0.992 ± 0.047

Sequence | switch fluorescence ratio
AGAGGGGTCA | 1.01 ± 0.02
AGAGGGTAGT | 1.01 ± 0.022
AGAGGGTTAT | 0.985 ± 0.038
AGAGGTGGAG | 0.993 ± 0.03
AGAGGTTTTG | 1.01 ± 0.042
AGAGTAGTTA | 0.9737 ± 0.0036
AGAGTATCTA | 0.962 ± 0.048
AGAGTCGCGG | 1 ± 0.015
AGAGTGACGT | 0.9848 ± 0.0018
AGAGTGGAAG | 0.977 ± 0.051
AGAGTGGGCC | 0.956 ± 0.07
AGAGTGGTGT | 1 ± 0.024
AGAGTTAAAA | 1.04 ± 0.0077
AGAGTTCATA | 1.04 ± 0.027
AGAGTTCTCG | 0.978 ± 0.012
AGAGTTGGTC | 1 ± 0.068
AGATAACAGG | 1.01 ± 0.034
AGATAACTCA | 1.02 ± 0.048
AGATAACTCT | 1.012 ± 0.0083
AGATAGGAGT | 1.02 ± 0.019
AGATAGTCTC | 0.991 ± 0.024
AGATATAGGG | 0.937 ± 0.012
AGATATCTA | 0.985 ± 0.023
AGATATGCGT | 1.025 ± 0.0013
AGATATTGGC | 1.03 ± 0.11
